The record followed here is PMC9495943, “Recombinant Expression of Archaeal Superoxide Dismutases in Plant Cell Cultures: A Sustainable Solution with Potential Application in the Food Industry” (Antioxidants, 2022).

The data set concerns the molecule itself. Nature of the data set: SEC; Superdex 200 calibrated with standard protein markers; 50 mM Tris-HCl pH 7.5, 50 mM NaCl; partially purified SOD (ultrafiltration retentate of transformed tomato cell extract) loaded; apparent native mass compared with the theoretical mass of a homodimer. Background: SEC sorts molecules by how far they enter the pores of the column.

B1: Superoxide dismutase (Mn/Fe-dependent SOD) from Saccharolobus solfataricus P2 (enzyme, UniProt P80857 1-211, looked up)
chain: MTLQIQFKKYELPPLPYKIDALEPYISKDIIDVHYNGHHKGYVNGANSLLERLEKVVKGDLQTGQYDIQGIIRGLTFNINGHKLHALYWENMAPSGKGGGKPGGALADLINKQYGSFDRFKQVFTETANSLPGTGWAVLYYDTESGNLQIMTFENHFQNHIAEIPIILILDEFEHAYYLQYKNKRADYVNAWWNVVNWDAAEKKLQKYLTK
notes: Mn/Fe-dependent superoxide dismutase of Saccharolobus solfataricus P2; whole CDS (636 bp) amplified from genomic DNA and expressed in tomato cells; subunit of approximately 24 kDa; ORF cloned into the NcoI-XbaI sites of pCK-EGFP, then into pBI121; No tag is mentioned; also called SODSs; sodSs product
As to B1, the stoichiometry N – broadly, a count of units in the complex or per binding partner – was determined as 2.
